# From the nanobody polyreactivity screen of Harvey et al. (2022)
# Test: yeast display, Sf9 membrane polyspecificity reagent, FACS + sequencing; frameworks hold sequencing errors
# Procedure, shortened: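 Nanobodies from a synthetic yeast display library (Saccharomyces cerevisiae BJ5465), induced 36–48 hours with galactose, were stained 1 hour at 4 °C with 10% biotinylated, detergent-solubilized Sf9 membrane reagent, enriched on streptavidin microbeads, then FACS-sorted. Anti-HA (expression) and streptavidin (reagent binding) fluorescence set low and high (top ~1%) gates. Polyreactivity labels come from the gate of origin. Genes were colony-PCR amplified, MiSeq 2 × 250 sequenced and filtered by CDR length.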
sequence,measurement,value
QVQLVESGGGLVQAGGSLRLSCAASGRTFVGYAMGWYRQAPGKERELVAAITSGGGTYYADSVKGRFTISRDNAKNTVYLQMNSLKPEDTAVYYCNRASRRGYYYPYNYWGQGTQVTVSS,polyreactivity (PSR sort gate),high polyreactivity
QVQLVESGGGLVQAGGSLRLSCAASASTLYYNAMAWYIQAPGKERELVAAITSGGSTSYADSVKGRFTISRDNAKNTVYLQMNSLKPEDTAVYYCAAVFYRRFDYWGQGTQVTVSS,polyreactivity (PSR sort gate),low polyreactivity
QVQLVESGGGLVQAGGSLRLSCAASGSTFYYNAMGWYRQAPGKERELVAVINSGGSTYYADSVKGRFTISRDNAKNTVYLQMNSLKPEDTAVYYCARRRRESRQDGDYWGQGTQVTVSS,polyreactivity (PSR sort gate),high polyreactivity
QDQLVESGGGLVQAGGSLRISCAASGFTFDENAMGWYRQAPGINYSGASTYYADSVKGRFTISRDNAKNTVYLQMYSLKPEDTAVYYCAAEVVALMNYWGQGSQVTVSS,polyreactivity (PSR sort gate),low polyreactivity
QVQLVESGGGLVQAGGSLRLSCAASGRTFYRYAMGWYRQAPGKERELVASINRGGSTNYADSVKGRFTISRDNAKNTVFLQMNCLKPEDTAVYYCACYCYCYWGQGTQVTVSS,polyreactivity (PSR sort gate),low polyreactivity
QVQLVESGGGLVQAGGRLRLSCAASGFTCGVYDMGWYRQAPGKERALVADIDFTGGDTYYADSVKGRFTISRDNAKNTVYLQMIRLKPEDTAVYYCAARSWGVIYDYFYLGLDYWGQGTQVTVSS,polyreactivity (PSR sort gate),low polyreactivity
QVQLVESGGGLVQAGGSLRLSCADSGFIFWVYAMGWYRQAPGKERELVAAITSGGGSTYYADSVKGRFTISRDNAKNTVYLQMNSLKPEDTAVYYCATSLYTDNSWENYWGQGTQVTVSS,polyreactivity (PSR sort gate),high polyreactivity
QVQLVESGGGLVQAGGSLRLSCAASGSIFFYYAMGWYRQAPGKERELVAAITGSGGSTYYADSVKGRFTISRDNAKNTVYLQMNSLKPEDTAVYSCAADRTVRAVYYGYGYWGQGTQVTVSS,polyreactivity (PSR sort gate),low polyreactivity
QVQLVESGGGLVQAGGSLRLSCAASGSIFAWYAMGWYRQAPGKERELVAAIRFRGGSTYYADSVKGRFTISRDNAKNTVYLQMNSLKPEDTAVYYCAGYYWYRSYYWGQGTQVTVSS,polyreactivity (PSR sort gate),high polyreactivity
QVQLVESGGGLVQAGGSLRLSCAASGLTFLYYAMGWYRQAPGKERELVASISRGSNTNYADSVKGRFTISRDNAKNTVYLQMNSLKPEDTAVYYCAVDRRPYSGHGYDYWGQGTQVTVSS,polyreactivity (PSR sort gate),high polyreactivity
QVQLVESGGGLVQAGGSLRLSCAASGFIFYTYTRGWSRQAHGKERELVAAISYSGGRTYSADSVKGRFTISRDNAKNTVYLQMNSLKPEDTAVYYCAARRYYNSVANENNYWGQGTQVTVSS,polyreactivity (PSR sort gate),high polyreactivity
QVQLVESGGGLVQAGGSLRLSCAASGRTFDDNAMGWYRQAPGKERELVAAINFTGGSTYYADSVKGRFTISRDNAQNTVSLQMNSLKPEDTAVYYCAVRPGYYCGYWPRFGYWGQGSQVTVSS,polyreactivity (PSR sort gate),low polyreactivity
QVQLVESGGGLVQAGGSLRLSCAASGSTFLTYAMGWYRQAPGKERELVAAISIAGSTYYADSVKGRFTISRDNAKNTVYLQMNSLKPEDTAVYYCAADIFERGPVPDRHNGYDYWRQGTQVTVSS,polyreactivity (PSR sort gate),low polyreactivity
QVQLVESGGGLVQAGGSLRLSCAASGSIFSSYAMGWYRQAPGKERELVAAISSSGDSTYADSVKGRFTISRDNAKNTVYLQMNSLKPEDTAVYDCAVGGAGSDDYWGQGTQVTVSS,polyreactivity (PSR sort gate),low polyreactivity
QVQLVESGGCLVQAGGSLRLSCAASGFTFHNNVMGWYRQAPGKDRELVATISKSGGSTYYADSEKGRFTISRDNAKNTVYLQMNSLKPEDTAVYYCDRRYRYYGRYGYWGQGTQVTVSS,polyreactivity (PSR sort gate),high polyreactivity
QVQLVESGGGLVQAGGSLRLSCAASGSTFEGNAMGWYRQAPGKERELVAAISSGGRTYYADSVKGRFTISRDNAKNTVYLQMNSLKPEDTAVYYCAAYVRRGFDWGQGTQVTVSS,polyreactivity (PSR sort gate),high polyreactivity
QVQLVESGGGLVQAGGSLRLSCAASGRTFNYYAMGWYRQAPGKERELVAAISASGGRTYYADSVKGRFTISRDNAKNTVYLQMNSLKPAETAVYYCAKVSSFDAQFDYWGQGTQVTVSS,polyreactivity (PSR sort gate),high polyreactivity
QVQLVASGGGLVQAGGSLRLSCAASGGTFFYNAKGWYRQAPGKERELVAAINGGTSTNYADSVKGRFTISRDNAKNTDYLQRNSLKPEDTAVYYCAAVYRRLGRSDWYDYWGQGTQVTVSS,polyreactivity (PSR sort gate),low polyreactivity
QVQLVESGGGLVQAGGSLRLSCAASGNIFANAMGWYRQAPGKERELVAAISRSGGSTYYADSVKGRFTISRDNAKNTVYLQMNSLKPEDTAVYYCAARTTRGPTFGYWGQGTQVTVSS,polyreactivity (PSR sort gate),high polyreactivity
QVQLLESGGGLVQAGGSLRLTCAASGSTFDYYAMGWYRQAPGKERELVATISYNDDTTYYADSVKGRFTISRDNAKNTVYLQMNSLKPEDTAVYYCNAEVYGGRYYVDMYYWGQGTQVTVSS,polyreactivity (PSR sort gate),low polyreactivity
QVQLVESGGGLVQAGGSLRLSCATSGRIFHRYAMGWYRQAPGKERELVAGISSSGGSTYADSVKGRFTISRDNAKNTVYLQMNSLKPEDTAVYYCAKYFTDVSRHTYDYWGQGTQVTVSS,polyreactivity (PSR sort gate),high polyreactivity
QVQLVESGGGLVHAGGSLRLSCAASGFNFIVYAMGWYRQAPGKERELVASITYSGGGTYYADSVKGRFTISRDNAKNTVYLQMNSLIPEDTAVYYCNADVSWSYSVYREYGMDYWGQGTQVTVSS,polyreactivity (PSR sort gate),low polyreactivity
